Experiments:
Format in all cases: cell-based, mouse
[1] = test system: IFN-γ mRNA in LN cells; assay: IFN-γ mRNA by real-time PCR in LN cells of GA-immunized CD-1, BALB/cByJ, SJL/J mice (Example III); conditions: stimulation 10 μg/mL, 6 hours
Description: (§1) On Day 0, mice were immunized with 250 μg GA (GMA, Mylan Pharmaceuticals, Inc.) and CFA. The GA solution (20 mg/mL) was diluted with Dulbecco's Phosphate-Buffered Saline to 5 mg/mL. The dosing formulation consisted of equal volumes of the diluted GA solution (5 mg/mL) and CFA solution, mixed until well-emulsified. Animals were weighed and allocated to groups. Animals were dosed by injection into four footpads. The injection volume per animal was 0.1 mL (about 10 μL into each front footpad, and 40 μL into each hind footpad).
(§2) Immunized animals were euthanized by cervical dislocation on Day 10 post-immunization. Lymph node cells were isolated from animals and treated with Myelin Basic Protein (MBP, a negative control), Concanavalin A (ConA, a positive control) or GA as shown in Table 16. Lymph nodes in the axillary and popliteal regions were removed aseptically in a purifier clean bench. […] The LN were then washed 3 times with −5 mL of RPMI medium, and isolated by pressing the LN with a syringe plunger. […] The cell suspension was centrifuged at about 200×g for 10 minutes at about 4° C. and re-suspended in ice cold enriched DCCM-1 medium. Cells were seeded in 96-well tissue culture plates.
(§3) LN cells isolated from GA-immunized animals were stimulated with GA (GMA, Mylan Pharmaceuticals, Inc.) at concentrations as indicated in Tables 16 and 17. A positive control was prepared by treating LN cells with 2.5 μg/mL concavalin A (ConA, a non-specific T cell stimulant). Myelin basic protein (MBP, 10 μg/mL) and enriched DCCM-1 medium served as negative controls. The cells from all groups each were stimulated with the same GA lot. Each reaction was set up in triplicate.
(§4) After incubation at about 37° C. in a humidified CO2 incubator for 6 hours, the cells were lysed for total RNA isolation. Total RNA was isolated from treated LN cells using SV 96 Total RNA Isolation System according to the manufacturer's protocol (Promega, Cat. #Z3500). Cells were washed once with Phosphate Buffered Saline (PBS) and lysed in RNA lysis buffer. The lysate was transferred to wells of the SV 96 binding plate. Samples were washed with RNA wash solution and treated with DNase. Total RNA was eluted with nuclease-free water from the binding plate.
(§5) After the reverse transcriptase reaction was completed, cDNA samples were used directly for real-time PCR to measure the response biomarker mRNA levels produced by the stimulated cells. […] All probes for target genes contained FAM dye, and probes for the internal control contained VIC®/MGB dye. Samples will be prepared and run in 96-well plates using a Real-Time PCR system (7500, Life Technologies). This system allows direct detection of PCR-product formation by measuring the increase in fluorescent emission continuously during the PCR reaction. A relative quantitation method was used to analyze changes in mouse IL-2, IL-4, IL-5, IL-10, IL-13, IFN-γ and TNF-α expression in GA-treated samples relative to the untreated control (enriched DCCM-1 treated) samples. The Real-Time PCR program was:
(§6) The levels of mouse cytokine amplicons (IL-2, IL-4, IL-5, IL-10, IL-13, mIFN-γ and TNF-α) were normalized to internal probe levels (GAPDH) from the same samples. The following equations were used to calculate the relative increase in response to GA stimulation compared to the control sample: ΔCT=CT_target−CT_reference ΔΔCT=−ΔCT_Treated−CT_VC

[2] = test system: mIL-5 mRNA in primary LN cells; assay: mIL-5 mRNA by real-time PCR in stimulated LN cells of immunized (SJL/J×BALB/C)F1 mice (Example I); conditions: GA 10, MBP 10, ConA 2.5 μg/mL; for mIL-5 mRNA Level: Experiment 1, GA-immunized (SJL/J×BALB/C)F1; for mIL-5 mRNA: not normalized to a reference gene
Description: For each of the three experiments summarized in Table 1, female (SJL/J×BALB/C) F1 hybrid (Jackson Laboratory) mice were immunized by footpad injection with either 250 μg GMA (Mylan Pharmaceuticals, Inc.) and CFA (Sigma Aldrich), or Mannitol and CFA (as a negative control). The GA solution was diluted to 5 mg/mL with Dulbecco's Phosphate-buffered saline. A dose solution was then prepared by mixing the diluted GA solution (5 mg/mL) and CFA (1:1) until well-emulsified. Each mouse received a total injection volume of 0.1 mL (250 μg GA). Animals were immunized on Day 0. Immunized animals were sacrificed via cervical dislocation on Day 10 following immunization. […] The LN were washed 3 times with −5 mL of RPMI medium, and the LN cells isolated by pressing the LN with a syringe plunger. […] The cell suspension was centrifuged at about 200×g for 10 minutes at about 4° C. and re-suspended in ice cold enriched DCCM-1 medium. The LN cells (2.5×10^6 cells/cm^2) were plated in the wells of a 48-well tissue culture plate and stimulated with GA or controls.
Expression of cytokine mRNA was quantitatively analyzed using a Real-Time PCR system (7500, Applied Biosystems).
(DCCM1 from Beit Haemek Ltd.; Cat. No. 05 010 1A). There was no MBP treatment for the 2-hour groups.
Group 1B animals were female (SJL/J×BALB/C) F1 hybrid (Jackson Laboratory) mice immunized by footpad injection with either 250 μg GA and CFA, or Mannitol and CFA (as a negative control). A dose solution was prepared by mixing a diluted GA solution (5 mg/mL) and CFA (1:1). Each mouse received a total injection volume of […] (250 μg GA). Animals were immunized on Day 0. Immunized animals were sacrificed via cervical dislocation on Day 10 following immunization. Lymph nodes from immunized mice were removed and isolated. LN cells (2.5×10^6 cells/cm^2) were plated in the wells of a 48-well tissue culture plate for stimulation with GA.
Expression of cytokine mRNA was quantitatively analyzed 4 and 6 hours after using a Real-Time PCR system (7500, Applied Biosystems).

[3] = test system: IL-2 secreted by LN cells; assay: IL-2 secretion by GA-stimulated LN cells, MSD 9-plex ELISA (Example II); conditions: 21 hr
[4] = test system: IL-10 mRNA in LN cells; assay: IL-10 mRNA by real-time PCR in LN cells of GA-immunized CD-1, BALB/cByJ, SJL/J mice (Example III); conditions: stimulation 10 μg/mL, 6 hours
Description: as §1, §2, §3, §4, §5, §6

[5] = test system: IL-5 mRNA in LN cells; assay: IL-5 mRNA by real-time PCR in LN cells of GA-immunized CD-1, BALB/cByJ, SJL/J mice (Example III); conditions: stimulation 10 μg/mL, 6 hours
Description: as §1, §2, §3, §4, §5, §6

[6] = Group 2C: BALB/cByJ, GA-immunized

B1: MBP: myelin basic protein, a negative control (protein, UniProt P02686 1-304, looked up)
Myelin basic protein: MGNHAGKRELNAEKASTNSETNRGESEKKRNLGELSRTTSEDNEVFGEADANQNNGTSSQDTAVTDSKRTADPKNAWQDAHPADPGSRPHLIRLFSRDAPGREDNTFKDRPSESDELQTIQEDSAATSESLDVMASQKRPSQRHGSKYLATASTMDHARHGFLPRHRDTGILDSIGRFFGGDRGAPKRGSGKDSHHPARTAHYGSLPQKSHGRTQDENPVVHFFKNIVTPRTPPPSQGKGRGLSLSRFSWGAEGQRPGFGYGGRASDYKSAHKGFKGVDAQGTLSKIFKLGGRDSRSGSPMARR
B1 was tested, and the “IFN-γ mRNA Expression” value ([1]; Group 1C: CD-1, GA-immunized) was 0.8 fold change vs control, the “IFN-γ mRNA Expression” value [1, 6] was 0.2 fold change vs control and the “IFN-γ mRNA Expression” value ([1]; Group 3C: SJL/J, GA-immunized) was 0.2 fold change vs control. The “mIL-5 mRNA Level” value ([2]; 4 hour post stimulation) was 0.8 fold change vs control, the “mIL-5 mRNA Level” value ([2]; 6 hour post stimulation) was 0.2 fold change vs control and the “mIL-5 mRNA Level” value ([2]; 24 hour post stimulation) was 0.8 fold change vs control. The “mIL-5 mRNA” value ([2]; Group 1B (GA + CFA), 4 hours post-stimulation) was 1.4 fold change vs control, the “mIL-5 mRNA” value ([2]; Group 1B (GA + CFA), 6 hours post-stimulation) was 0.9 fold change vs control and the “mIL-5 mRNA” value ([2]; Group 2B (Mannitol + CFA), 4 hours post-stimulation) was 1.1 fold change vs control. For the same molecule, the “mIL-5 mRNA” value ([2]; Group 2B (Mannitol + CFA), 6 hours post-stimulation) was 1.1 fold change vs control, the “IL-2 secretion response ratio (treated cell medium to control DCCM1 medium)” value (from here on “IL-2 secretion response ratio”) ([3]; BALB/cByJ, immunized GA Lower Limb) was 1.13 and the “IL-2 secretion response ratio” value ([3]; C57BL10J, immunized GA Intraplantar) was 1.18. The “IL-2 secretion response ratio” value ([3]; C57BL10J, immunized GA Lower Limb) was 1.30, the “IL-2 secretion response ratio” value ([3]; CD-1, immunized GA Lower Limb) was 1.29 and the “IL-10 mRNA Expression” value ([4]; Group 1C: CD-1, GA-immunized) was 0.7 fold change vs control. For the same molecule, the “IL-10 mRNA Expression” value [4, 6] was 1.0 fold change vs control, the “IL-10 mRNA Expression” value ([4]; Group 3C: SJL/J, GA-immunized) was 0.3 fold change vs control and the “IL-5 mRNA Expression” value ([5]; Group 1C: CD-1, GA-immunized) was 0.8 fold change vs control. For the same molecule, the “IL-5 mRNA Expression” value [5, 6] was 0.2 fold change vs control and the “IL-5 mRNA Expression” value ([5]; Group 3C: SJL/J, GA-immunized) was 0.8 fold change vs control.

— patent US10344330B2, “Glatiramer acetate response biomarker mRNA potency assay” (Mylan Inc., priority 2013, dated 2019)
